Results as given in paper PMC11059514 (Molecular Metabolism, 2024).

Target: T1, PPARα bait (pCLG-PPARα), full-length PPARα fused to a mutant leptin receptor (UniProt Q07869 1-468)
T1 sequence: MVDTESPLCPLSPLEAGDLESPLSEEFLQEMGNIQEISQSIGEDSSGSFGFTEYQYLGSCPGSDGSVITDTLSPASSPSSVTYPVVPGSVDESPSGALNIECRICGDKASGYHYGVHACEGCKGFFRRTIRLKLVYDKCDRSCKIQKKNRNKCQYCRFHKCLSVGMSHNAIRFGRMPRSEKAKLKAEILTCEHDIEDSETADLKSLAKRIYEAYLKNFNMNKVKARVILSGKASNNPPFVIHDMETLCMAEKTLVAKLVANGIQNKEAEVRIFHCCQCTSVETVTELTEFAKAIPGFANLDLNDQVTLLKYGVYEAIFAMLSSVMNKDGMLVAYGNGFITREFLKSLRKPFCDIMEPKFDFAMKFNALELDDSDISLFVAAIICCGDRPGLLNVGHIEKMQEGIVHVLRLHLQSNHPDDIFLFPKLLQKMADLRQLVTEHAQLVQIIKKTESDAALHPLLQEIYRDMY
Assay: two-hybrid

B1: ERRα prey (pMG1-ERRα), full-size ERRα ORF coupled to gp130 (natural protein)
chain: MSSQVVGIEPLYIKAEPASPDSPKGSSETETEPPVALAPGPAPTRCLPGHKEEEDGEGAGPGEQGGGKLVLSSLPKRLCLVCGDVASGYHYGVASCEACKAFFKRTIQGSIEYSCPASNECEITKRRRKACQACRFTKCLRVGMLKEGVRLDRVRGGRQKYKRRPEVDPLPFPGPFPAGPLAVAGGPRKTAAPVNALVSHLLVVEPEKLYAMPDPAGPDGHLPAVATLCDLFDREIVVTISWAKSIPGFSSLSLSDQMSVLQSVWMEVLVLGVAQRSLPLQDELAFAEDLVLDEEGARAAGLGELGAALLQLVRRLQALRLEREEYVLLKALALANSDSVHIEDAEAVEQLREALHEALLEYEAGRAGPGGGAERRRAGRLLLTLPLLRQTAGKVLAHFYGVKLEGKVPMHKLFLEMLEAMMD
fold increase of the MAPPIT signal on serum starvation: ~3 fold
